In US20190211092A1 (NATIONAL UNIVERSITY CORPORATION TOKYO MEDICAL AND DENTAL …, published 2019):

Biological target: T1, GST-fusion HMGB1 protein (Wister rat HMGB1, full length, expressed from pGEX-3X) (rat (Wister), UniProt P63159 2-215)
T1 construct: mature; GST served as the negative control protein in screening; also called HMGB1 solid-phase plate; not shown: glutathione S-transferase (GST) tag of the pGEX-3X vector
T1 sequence (looked up): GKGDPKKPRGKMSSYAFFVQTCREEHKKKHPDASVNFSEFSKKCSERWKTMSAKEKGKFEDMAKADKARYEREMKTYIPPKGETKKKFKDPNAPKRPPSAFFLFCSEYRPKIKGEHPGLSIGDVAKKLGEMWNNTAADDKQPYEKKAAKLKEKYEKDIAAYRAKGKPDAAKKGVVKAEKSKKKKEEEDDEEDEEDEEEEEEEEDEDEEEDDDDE
Test: ELISA on GST-fusion HMGB1 and SPR (FIGS. 1A and 1B)
Protocol: Then, to select anti-HMGB1 monoclonal antibodies, the ELISA method was carried out as described below. First, part of the culture solution after 2 weeks was sampled and added in […] to a microplate in which 250 ng/well of the HMGB1 protein or the negative control protein (GST) was immobilized. Subsequently, reaction was carried out at room temperature for 1 hour, followed by washing with PBS three times. A secondary antibody (HRP-labeled anti-mouse IgG, manufactured by MEDICAL & BIOLOGICAL LABORATORIES CO., LTD., code number 330) was diluted in accordance with the package insert and added in 50 μL/well, which was reacted for one hour at room temperature, followed by washing with PBS three times after the reaction. Thereafter, a TMB reagent (MOSS, Inc., Chicago, Ill., USA, USA) was added in 50 μL/well, followed by enzyme chromogenic reaction for 15 minutes. Subsequently, after the enzyme reaction was stopped with 1.5 N phosphoric acid, the absorbance was measured with a plate reader with 450 nm (reference 630 nm) to select clones that reacts specifically with the HMGB1 solid-phase plate, establishing anti-HMGB1 monoclonal antibodies.

B1: anti-HMGB1 monoclonal antibody (2C8C) (antibody, V domains shown)
VH: QVQLQQSGPELVKPGASVKLSCKASGYTFTDYTIHWVKQSPGQGLEWIGWIYPGSGNTKYNDKFKGKATMTADKSSSTAYMQLSSLTSEDSAVYFCARGFAYWGQGTLVTVSA
VL: DIVLTQSPATLSVTPGDSVSLSCRASQSISNNLHWYQQKSHESPRLLIKYASQSISGIPSRFSGSGSGTDFTLSINSVETEDFGMYFCQQTNSWPLTFGAGTKLELK
notes: also called 2C8C antibody; clone 2C8C
B1: binds.
